In the DeepSol protein solubility set:

Experiment: soluble on expression in E. coli; label from the status in PepcDB or PDB records

Soluble on expression in E. coli, not soluble:
MSLKITDLRVAVVSRAPMTCPIIRIDTNQGIYGLGEVRDGASKNYALMLKSRLLNENPCNVDKLFRKIKQFGGHARQGGGVCGVEMALWDLAGKAYNVPVHQMLGGKFRDRIRCYADTTESHDPKVYGQRLKARRDEGFTWLKMDLGVDLVADVPGALTMPVGERINGNPMVAHMFTGNEITEKGIQLMCDYVAQIREIVGMDIPLSADHFGHIGVNSCIRLGKALTKYNMAWLEDMIPWQQTALLKQIADAVDIPILTGEDIYLKEPFIELCKAHAVDIIHPDLATSGGILETKKIGDAAQELGVAMAMHFAGSPVSCMANVHCAAATENFLVLENHSVDVPWWGDLVEGVSKPIVSKGFITVPNGPGLGVTLNDEVVKQHLGEPGYFEATPYWNVDRSNDRQWSEGHHHHHH
DLFFGWGRKKSGLKAMNLAKKYKAKFILLEDGFIRSLNLGVENSPSFSMVKDDIGIYYDATMPSKLENLLNTCEFKDEEIKQAKKAIELIKKYKISKYNNNLDIPDNYFQKDEKRVLIITQTANDASLEFGLAKDFKTLDMIKDAIKENPKSTIYIKIHPDVLSGKKQSDLDLNSLPKECILITENFNPIALLEFFDKVYTKTSGMGFEALMQECECICYGMPFYAGWGLTKDKLECKRRMQKRSLEEVFYAAYILYAEY
GPGSMALGSGIGLVPMWSSCPSVNPPTFPKGGIEILRQSLEAQEEVERTFREREAGHIECLNFKKSLRHLLRKQNERREELQLVEQRASERTQALLDELLIVVRERLKAMSPEGYQSITFDNGDMYEGNWKSCRMHGTGVMRRVADNDIYEGEWFFGVRNGNGMCCSPNFGTLYSGKWLAGKWHGRGELAEPEGLYIGDFVDGQIRGYGEYLYREGYAYKGDWVNGVYEGSGTFFYTNGARYEGQWRNGYEHGRGTMTYYNGDVYTGDWCNGRKHGTGTYTSKLLQYEGGWSSGAVHGIGKCTYADGSMYKGSWCRGLYDGDGEFVSQDKKCSYKGEFRGGKRCGRGVYQCGEVEYSGDWLDDRRHGVGEIKTRDGRVFRGTWSHDEPHCEVVPGCNLEGTSLSYCGGRGAPIAPEEPDPVLNMRLGLPDEVIDCMADAPT
MNLNYKFERLYRVLFNEEMFYVAYQNIYSKTGNMTAGADGKTIDGMSIDRVEQLIGSLKNETYQPNPSKRTYIPKKNGKKRPLGIPSFDDKLVQEVVRMILEAIYEGSFEHTSHGFRPKRSCHTALIDIQKTFTAVKWFIEGDIKGFFDNINHDVLINILRERIADERFLRLIRKFLNAGYVEDWVFHRTYSGTPQGGIISPILANIYLDKFDKYIKEYINRFNKGVTRKGDARYKLYEQRRYRLAKKLKNEKDVKVRKQMTAEIKRLREERNNYPARNEMDSSIKRLKYVRYADDFLIGITGNLEDCKTVKEDIKNYLNEALKLELSDEKTLITNAQKPAKFLGYDVFIRRCNDLRKDKYGKTVRAFGHKPVLYLNFETMRKKLFDYKAARIAVVNGKEVWKSIVRTYMLNLDDLEIVSQFNAEIRGFYNYYSIANNSYVINSFYHIMSYSMYKVFANKYKSSVKKILLKYKKNKVFQVAYENSKGKTLYQSFYHDGFKRKKVAGNIYCDTIPRTVSITGGRNSLMERLKLQVCELCGATDKLEMHHVRKLKDLKGKSDWEKKMIARRRKTLAVCSKCHAKIDPDRRIRLNLEHHHHHH
VSIDVPERADLEQVRGRWRNAVAGVLSKSNRTDSAQLGDHPERLLDTQTADGFAIRALYTAFDELPEPPLPGQWPFVRGGDPLRDVHSGWKVAEAFPANGATADTNAAVLAALGEGVSALLIRVGESGVAPDRLTALLSGVYLNLAPVILDAGADYRPACDVMLALVAQLDPGQRDTLSIDLGADPLTASLRDRPAPPIEEVVAVASRAAGERGLRAITVDGPAFHNLGATAATELAATVAAAVAYLRVLTESGLVVSDALRQISFRLAADDDQFMTLAKMRALRQLWARVAEVVGDPGGGAAVVHAETSLPMMTQRDPWVNMLRCTLAAFGAGVGGADTVLVHPFDVAIPGGFPGTAAGFARRIARNTQLLLLEESHVGRVLDPAGGSWFVEELTDRLARRAWQRFQAIEARGGFVEAHDFLAGQIAECAARRADDIAHRRLAITGVNEYPNLGEPALPPGDPTSPVRRYAAGFEALRDRSDHHLARTGARPRVLLLPLGPLAEHNIRTTFATNLLASGGIEAIDPGTVDAGTVGNAVADAGSPSVAVICGTDARYRDEVADIVQAARAAGVSRVYLAGPEKALGDAAHRPDEFLTAKINVVQALSNLLTRLGA
MGSDKIHHHHHHMVFFMLIIDVNHGALTLAEEYLNLGYEVDVWDIYQKIKKSEDFKVKYQKLKEKFGNKLNLFFEQPNFEKYDRVIAPIHCPIDVDFIPFTDAVSKILKEKFGNIHKKIINVTGVKGKTTTTSLINHILKDKYSTYLHNSNFGSIAPPTILKVLNSLDIDKYDFFIFETSLGLIKCKYGAITNVLENYKIAGGRKDALTAKFSSLKNAELSFINKRDINRYDLNINHKCLNVVDVDRAKILDKYPLKFKYFDEIFEFSKNIFGLHFVENSLFAIEICKNLVDMEEIRYRLKTFTIKNRMEIKEINKKILVKNINPGLDVKAISYAIKDFLEVFGGDIYIGGDFGIVCEEIDVKKLSEVLKRFNCRYIFVGEIGKELLNYLNGGYIKSYDENKIKRDSLVILREKIK
MSLVERALQVGSPAPDFALPNAVGREVRLSSVTARGPSVITFYRGAWCPYCSLQLRAYQKILPQLKLLGGELLAISPQTPDKTQATLLKNFLEYEVLSDVGNRVAKRFGLVYPVGAEVRRIYLGFGVDLAEYNGDDSWELPLPGTFVIDRTMTVRLSFVDADYTRRLEPAAILDTLRAMRDVGGIPEGHHHHHH
MKTVRESTTLYNFLGSHNPYWRLTESSDVLRFSTTETTEPDRTLQLSAEQAARIREMTVITSSLMMSLTVDESDLSVHLVGRKINKREWAGNASAWHDTPAVARDLSHGLSFAEQVVSEAHSAIVILDSRGNIQRFNRLCEDYTGLKEHDVIGQSVFKLFMSRREAAASRRNNRVFFRSGNAYEVELWIPTCKGQRLFLFRNKFVHSGSGKNEIFLICSGTDITEERRAQERLRILANTDSITGLPNRNAMQDLIDHAINHADNNKVGVVYLDLDNFKKVNDAYGHLFGDQLLRDVSLAILSCLEHDQVLARPGGDEFLVLASNTSQSALEAMASRILTRLRLPFRIGLIEVYTSCSVGIALSPEHGSDSTAIIRHADTAMYTAKEGGRGQFCVFTPEMNQRVFEYLWLDTNLRKALENDQLVIHYQPKITWRGEVRSLEALVRWQSPERGLIPPLDFISYAEESGLIVPLGRWVILDVVRQVAKWRDKGINLRVAVNISARQLADQTIFTALKQVLQELNFEYCPIDVELTESCLIENDELALSVIQQFSQLGAQVHLDDFGTGYSSLSQLARFPIDAIKLDQVFVRDIHKQPVSQSLVRAIVAVAQALNLQVIAEGVESAKEDAFLTKNGINERQGFLFAKPMPAVAFERWYKRYLKRA
MGSDKIHHHHHHMTKTDPAPMAPPPRGEEEEEEEEDEPVPEAPSPTQERRQKPVVHPSAPAPLPKDYAFTFFDPNDPACQEILFDPQTTIPELFAIVRQWVPQVQHKIDVIGNEILRRGCHVNDRDGLTDMTLLHYACKAGAHGVGDPAAAVRLSQQLLALGADVTLRSRWTNMNALHYAAYFDVPVLVRVLLKGARPRVVNSTCSDFNHGSALHIAASSLCLGAAKCLLEHGANPALRNRKGQVPAEVVPDPMDMSLDKAEAALVAKELRTLLEEAVPLSCALPKVTLPNYDNVPGNLMLSALGLRLGDRVLLDGQKTGTLRFCGTTEFASGQWVGVELDEPEGKNDGSVGGVRYFICPPKQGLFASVSKISKAVDAPPSSVTSTPRTPRMDFSRVTGKGRREHKGKKKTPSSPSLGSLQQRDGAKAEVGDQVLVAGQKQGIVRFYGKTDFAPGYWYGIELDQPTGKHDGSVFGVRYFTCPPRHGVFAPASRIQRIGGSTDSPGDSVGAKKVHQVTMTQPKRTFTTVRTPKDIASENSISRLLFCCWFPWMLRAEMQS
MALLEICCYSMECALTAQRNGADRIELCAAPKEGGLTPSFGVLRSVREHITIPVHPIIRPRGGDFYYTDGEFAAMLEDIRLVRELGFPGLVTGVLTVDGDVDMSRMEKIMAAAGPLAVTFHRAFDMCANPFNALKNLADAGVARVLTSGQKADAAQGLSIIMELIAQGDAPTIMAGAGVRANNLQNFLDAGVREVHSSAGVLLPSPMRYRNQGLSMSADIQADEYSRYRVEGAAVAEMKGIIVRHQAK

Soluble on expression in E. coli, soluble:
MRTISFFNNKGGVGKTTLSTNVAHYFALQGKRVLYVDCDPQCNATQLMLTEEQTESIYLDGLNDEVAERNSLAKTVYAIFVPLREGESQIAAEITPMRSERFGVDVLPGHPALSQIEDLMSDSWQSALGRQTGPFRRIHWAGQLAHAMERDDRYDVIFFDVGPSLGPFNRTVLLGCDAFVTPTATDLFSFHAFGNLARWFDAWVTQYAEIHEGNMAEWKKYSADVEAKTRPLRLGGFDGEGLRYLGYTTLEYVKRRANGQEQLVGAFERFRGRFAAEAERISNSLSKHSNSTLLGHVPHMHSMPATAQDVHAPIMELSSSDRVRGAQINQRNAYAEKINSVAANVYKALFPNELEHHHHHH
MSLSQYAEMSLVYDQLTQDQPYEKWFEIVKNHCKDESNILDIGCGTGSLTVQLEALGNVTGMDLSVDMLTVAAQKSANVNWLEGDMTSFDLQQQFDIITIFCDSLNYLQDETAVIETFINVYHHLTDSGVFIFDVHTVYKMMTLFNNQSYIDDKGDIFLAWDAVQGDLPLSVYHDMTFFIRHEDETYSRFDESHFQRTFDEKTYLSWLAQVGFKHVETFTDFNIDEHNEDTERLFFIAKKEGHHHHHH
MTKPVLQDGETVVCQGTHAAIASELQAIAPEVAQSLAEFFAVLADPNRLRLLSLLARSELCVGDLAQAIGVSESAVSHQLRSLRNLRLVSYRKQGRHVYYQLQDHHIVALYQNALDHLQECR
MIPKVIHYFWFGRGKKNDVIERCMDSWKVHLPDYEIKEWNEDNFNVHINNFTLQAYQMKKWAFVSDYARLHILYHYGGIYLDTDLEITNSLDPFLDYEGFMGFFSNFDISGGIIGAAKGNKFIKKLLTYYENKNFIDGNGKIDEKTNVEIITEISKKHFGFVGENQTQQILDMTIFPKEYFTVRDVNVKNYAIHHYNASWLSHEEMNKHLKSYRKYYEFTVKWLDNLINNKIDLTPYKNKCIAIFGKGYIGELLVSYLQNNNVPIRQIIDTKFANDTYKDIPIVSSDTISDEVNLIIITPIHSFESIYLSLKEKSCADIISIENLLS
SSGHKCYPWDLQDRYAQDKSVVNKMQQKYWETKQAFIKATGKKEDEHVVASDADLDAKLELFHSIQRTCLDLSKAIVLYQKRICFLSQEENELGKFLRSQGFQDKTRAGKMMQATGKALCFSSQQRLALRNPLCRFHQEVETFRHRAISDTWLTVNRMEQCRTEYRGALLWMKDVSQELDPDLYKQMEKFRKVQTQVRLAKKNFDKLKMDVCQKVDLLGASRCNLLSHMLATYQTTLLHFWEKTSHTMAAIHESFKGYQPYEFTTLKSLQDPMKKLVEKEEKKKINQQESTDAAVQEPSQLISLEEENQRKESSSFKTEDGKSILSALDKGSTHTACSGPIDELLDMKSEEGACLGPVAGTPEPEGADKDDLLLLSEIFNASSLEEGEFSKEWAAVFGDGQVKEPVPTMALGEPDPKAQTGSGFLPSQLLDQNMKDLQASLQEPAKAASDLTAWFSLFADLDPLSNPDAVGKTDKEHELLNA
